Source: publication PMC10864275, “Binding kinetics drive G protein subtype selectivity at the β1-adrenergic receptor” (Nature Communications, 2024)
Substitutions are numbered along the chain they refer to. Names may count otherwise. “And” between values parts separate entries of the source, which are not always exact repeats. Equal entries are not always repeated. Values belong to the binder of their own block, whether it stands above or below them.

What was measured:
Settings in all cases: both partners purified
[1] = biological target: T1, avi-β1AR-E (turkey β1-adrenergic receptor, minimally thermostabilised construct with E130 restored, … (turkey, UniProt P07700 1-367, Δ3-32 | Δ244-271 | C358A^8.59 | C116L^3.27 | R68S^1.59 | F327A^7.37 | …, biotin on the avi-tag)); assay: BLI; biotinylated avi-tagged receptor in LMNG immobilised on streptavidin biosensors; 500 μM isoprenaline; mini-G in solution at a single concentration (0.125-4 μM); 20 mM TrisHCl pH 8.0, 150 mM NaCl, 15 mM MgCl2, 0.02% LMNG, 0.1% BSA; 25 °C; 1:1 monophasic local partial fit; one of n = 3 tips
T1 construct: turkey β1-adrenergic receptor; N-terminus truncated (Δ3-32), C-terminus truncated (Δ368-483), IL3 truncated (Δ244-271); as β1AR-W (β1AR-MetΔ5) but with E130W reverted to E130; source: Sf9 (baculovirus), purified in LMNG (NiNTA, SEC), biotinylated with GST-BirA and repurified by SEC; not shown: avi-tag, N-terminal, kept

[2] = biological target: T2, avi-β1AR-W (turkey β1-adrenergic receptor β1AR-MetΔ5, thermostabilised with E130W, N-terminal biotinylated … (turkey, UniProt P07700 1-367, Δ3-32 | Δ244-271 | C358A^8.59 | C116L^3.27 | R68S^1.59 | E130W^3.41 | …, biotin on the avi-tag)); assay: as above
T2 construct: turkey β1-adrenergic receptor; N-terminus truncated (Δ3-32), C-terminus truncated (Δ368-483), IL3 truncated (Δ244-271); source: Sf9 (baculovirus), purified in LMNG (NiNTA, SEC), biotinylated with GST-BirA and repurified by SEC; not shown: avi-tag, N-terminal, kept

[3] = biological target: T3, avi-β1AR-E (turkey β1-adrenergic receptor, β1AR-E construct with N-terminal biotinylated avi-tag) (turkey, UniProt P07700 1-367, Δ3-32 | Δ244-271 | C358A^8.59 | C116L^3.27 | R68S^1.59 | F327A^7.37 | …, biotin on the avi-tag); assay: BLI; biotinylated avi-β1AR in LMNG on streptavidin biosensors, mini-G in solution; 500 μM isoprenaline; 20 mM TrisHCl pH 8.0, 150 mM NaCl, 15 mM MgCl2, 0.02% LMNG, 0.1% BSA; 25 °C; single point measurements, monophasic 1:1 local fit, n = 3
T3 construct: turkey β1-adrenergic receptor; N-terminus truncated (Δ3-32), C-terminus truncated (Δ368-483), IL3 truncated (Δ244-271); as β1AR-W (β1AR-MetΔ5) but with E130 as in the wild type; source: Sf9 (baculovirus), purified in LMNG (NiNTA, SEC), biotinylated with GST-BirA, repurified by SEC; not shown: avi-tag, N-terminal, kept
T3 sequence (P07700 other isoform, or with tags, fused parts or gaps with the stated changes): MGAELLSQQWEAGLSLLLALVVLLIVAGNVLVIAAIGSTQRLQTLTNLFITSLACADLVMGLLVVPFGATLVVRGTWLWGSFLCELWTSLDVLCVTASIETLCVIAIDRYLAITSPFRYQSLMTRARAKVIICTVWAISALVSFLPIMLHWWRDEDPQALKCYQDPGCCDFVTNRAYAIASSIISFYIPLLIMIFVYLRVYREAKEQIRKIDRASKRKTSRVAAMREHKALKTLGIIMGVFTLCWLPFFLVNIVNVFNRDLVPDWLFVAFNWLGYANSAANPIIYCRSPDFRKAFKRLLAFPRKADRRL

T2 sequence (P07700 other isoform, or with tags, fused parts or gaps with the stated changes): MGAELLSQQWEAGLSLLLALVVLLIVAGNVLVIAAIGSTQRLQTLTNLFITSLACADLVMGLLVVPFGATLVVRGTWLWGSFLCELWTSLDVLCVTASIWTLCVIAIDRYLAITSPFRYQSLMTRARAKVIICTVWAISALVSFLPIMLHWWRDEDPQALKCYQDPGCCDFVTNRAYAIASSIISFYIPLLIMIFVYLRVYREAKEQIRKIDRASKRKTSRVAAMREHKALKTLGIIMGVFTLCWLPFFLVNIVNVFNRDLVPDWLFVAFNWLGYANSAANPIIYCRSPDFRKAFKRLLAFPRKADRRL

B1: mini-Gs/q R70 (chimera of mini-Gs with the receptor-interacting residues of the α5 helix replaced by Gq residues) (domain or fragment)
chain: GIEKQLQKDKQVYRATHRLLLLGADNSGKSTIVKQMRILHGGSGGSGGTSGIFETKFQVDKVNFHMFDVGGQRDERRKWIQCFNDVTAIIFVVDSSDYNRLQEALNDFKSIWNNRWLRTISVILFLNKQDLLAEKVLAGKSKIEDYFPEFARYTTPEDATPEPGEDPRVTRAKYFIRDEFLRISTASGDGRHYCYPHFTCAVDTENARRIFNDCKDIILQMNLREYNLV
Kd [1]: 241 nM and 242 nM and 244 nM
koff [1]: 0.00344 s⁻¹ (2×) and 0.0034 s⁻¹
kon [1]: 14300 M⁻¹ s⁻¹ and 14200 M⁻¹ s⁻¹ and 14000 M⁻¹ s⁻¹
Kd [2]: 529 nM and 541 nM and 533 nM
koff [2]: 0.00658 s⁻¹ and 0.00672 s⁻¹ and 0.00679 s⁻¹
kon [2]: 12400 M⁻¹ s⁻¹ (2×) and 12800 M⁻¹ s⁻¹

B2: mini-Gs/i R43 with C96A (domain or fragment)
chain: IEKQLQKDKQVYRATHRLLLLGADNSGKSTIVKQMRIYHTSGIFETKFQVDKVNFHMFDVGGQRDERRKWIQAFNDVTAIIFVVDSSDYNRLQEALNDFKSIWNNRWLRTISVILFLNKQDLLAEKVLAGKSKIEDYFPEFARYTTPEDATPEPGEDPRVTRAKYFIRDEFLRISTASGDGRHYCYPHFTCAVDTENARRIFNDVTDIIIKMNLRDCGLF
Kd [3]: 1090 nM
fold reduction of kon against mini-Gs [3]: 40 fold

Other lines, results leading:

Kd [3]: 240 nM
B3: mini-Gs/q R70 (domain or fragment)
chain: B2 chain with A73C, V205C, T206K, I210L, K211Q, D216E, C217Y, G218N, F220V

Kd [1]: 1070 nM and 1180 nM and 1030 nM
koff [1]: 0.00392 s⁻¹ and 0.00399 s⁻¹ (2×)
kon [1]: 3670 M⁻¹ s⁻¹ and 3370 M⁻¹ s⁻¹ and 3860 M⁻¹ s⁻¹
Kd [2]: 3050 nM and 2400 nM and 2150 nM
koff [2]: 0.0063 s⁻¹ and 0.00605 s⁻¹ and 0.00634 s⁻¹
kon [2]: 2070 M⁻¹ s⁻¹ and 2520 M⁻¹ s⁻¹ and 2950 M⁻¹ s⁻¹
B4: mini-Gs/i R43 C96A (chimera of mini-Gs with the receptor-interacting residues of the α5 helix replaced by Gi1 residues) (domain or fragment)
chain: B2 chain with Y38L
